Test results taken from US8153597B2, “Modulators of the ABC transporter family and methods for their use” (priority 2003, dated 2012).
Where two headings read alike, the source gives them in different places.

B1: PA2934-His: purified C-terminal penta-histidine tagged PA2934 (Cif, CFTR inhibitory factor; SEQ ID NO:1) expressed in E. coli (protein, listed as Pseudomonas aeruginosa)
chain: MILDRLCRGLLAGIALTFSLGGFAAEEFPVPNGFESAYREVDGVKLHYVKGGQGPLVMLVHGFGQTWYEWHQLMPELAKRFTVIAPDLPGLGQSEPPKTGYSGEQVAVYLHKLARQFSPDRPFDLVAHDIGIWNTYPMVVKNQADIARLVYMEAPIPDARIYRFPAFTAQGESLVWHFSFFAADDRLAETLIAGKERFFLEHFIKSHSSNTEVFSERLLDLYARSYAKPHSLNASFEYYRALNESVRQNAELAKTRLQMPTMTLAGGGHGGMGTFQLEQMKAYADDVEGHVLPGCGHWLPEECAAPMNRLVIDFLSRGR
modifications: C-terminal penta-His tag

Columns and labels:
[1] = system: CFTR-mediated Cl− secretion; assay: Ussing chamber: CFTR-mediated Cl− secretion (Isc) across polarized CFBE41o− human airway epithelial cells; format: cell-based
Method: These experiments were conducted in CFBE41o− cells stably expressing either wt-CFTR or ΔF508-CFTR and in parental (non-transfected ΔF508/ΔF508) CFBE41o− cells. To increase apical membrane expression of ΔF508-CFTR, cells were grown at 27° C. for 36 hours in accordance with methods set forth in Example 5. […] Parental CFBE41o− cells, and CFBE41o− cells stably expressing either wt-CFTR or ΔF508-CFTR were incubated at 27° C. in a CO2 incubator in the absence of antibiotics. Vehicle or PA14 bacteria (5×10^8 CFU/ml) were added to the apical side of the monolayers.
Monolayers grown on Transwell (6.5 mm diameter) or Snapwell (12 mm diameter) permeable supports, as described in Example 1, were mounted in an Ussing-type chamber (Jim's Instruments; Iowa City, Iowa or Physiologic Instruments; San Diego, Calif.) and bathed in solutions, pH 7.4 maintained at 37° C. and stirred by bubbling with 5% CO2/95% air. Short circuit current (Isc) was measured by voltage-clamping the transepithelial voltage across the monolayers to 0 mV with a voltage clamp (model VCC MC6, Physiologic Instruments, San Diego, Calif.). Current output from the clamp was digitized by an analog-to-digital converter (iWorx; Dover, N.H.). Data collection and analysis were done with LabScribe v1.6 Software (iWorx; Dover, N.H.). Stimulated Isc was measured after addition of 100 μM CPT-cAMP (Calu-3 and MDCK cells) or 20 μM forskolin (wt-CFTR CFBE41o− cells) to the apical and basolateral bath solution or 50 μM genistein (ΔF508-CFTR CFBE41o− cells) to the apical bath solution. Net stimulated Isc (ΔIsc) was calculated by subtracting the baseline Isc measured before stimulation from the peak Isc measured after stimulation. Glybenclamide (200 μM) was added to the apical bath solution to inhibit CFTR-mediated Isc.
CFBE41o− cells were bathed in solutions with a basolateral-to-apical Cl− gradient in the presence of amiloride (100 μM) in the apical bath solution to inhibit Na+ absorption through the epithelial Na+ channel (ENaC). […]

[2] = system: wt-CFTR; assay: Cell-surface biotinylation: apical membrane expression of wt-CFTR in canine (MDCK) cells; format: cell-based; details: purified protein
Method: In these experiments two human cell lines endogenously expressing CFTR, Pgp, BCRP and MRP2, and polarized canine and rat cells stably expressing wild-type (wt)-CFTR and/or Pgp, were contacted with a pelleted fraction of either P. aeruginosa strain PA14 or eight different clinical isolates. Apical membrane expression of CFTR, Pgp, and MRP2 was measured by cell-surface biotinylation. Epithelial cells were then lysed and biotinylated proteins were isolated, separated and amounts of apical membrane expression of CFTR, PgP and MRP2 were determined.
Epithelial cell cultures were grown on Transwell permeable growth supports (24 mm diameter, 0.4 μm pore size; Corning Corporation, Corning, N.Y.: #3412). Apical membrane expression of CFTR, Pgp, MRP1, BCRP and MRP2 was measured by cell-surface biotinylation as described by Lisanti, et al. (J. Cell Biol. 1989 109:2117-2127) and Swiatecka-Urban et al. J. Biol. Chem. 2002 277(42):40099-105).
MDCK cells stably expressing GFP-wt-CFTR or GFP-ΔF508-CFTR fusion proteins were established and maintained in culture in a 5% CO2/95% air incubator at 37° C. in MEM complete medium containing 50 U/ml penicillin, 50 μg/ml streptomycin, 2 mM L-glutamine, 10% FBS, and 150 μg/ml G418. Addition of GFP to the N-terminus of CFTR has no effect on CFTR localization, trafficking, function as a Cl channel, or on its degradation. MDCK cells were seeded on Transwell permeable supports (0.2×10^6 on 6.5 mm and 24 mm diameter, 0.4 μm pore size; Corning Corporation; Corning, N.Y.) and grown in culture at 37° C. for 7-10 days. Under these conditions, MDCK cells become polarized. Sodium butyrate (5 mM; Sigma-Aldrich; St. Louis, Mo.) was added to the MDCK cell culture medium 16-18 hours before experiments to stimulate CFTR expression.
In these experiments, apical membrane proteins were biotinylated at 4° C. using a derivative of biotin (EZ-Link™ Sulfo-NHS-LC-Biotin: Pierce). […] Biotinylated CFTR, Pgp, BCRP and MRP-2 were analyzed by Western blotting using antibodies against CFTR, Pgp, and MRP-2, respectively. […]

[3] = Epoxide hydrolase activity assay, degradation of (S)-NEPC; format: biochemical; details: purified protein; 60 minute incubation period
Method: To assess whether Cif acts as an epoxide hydrolase, its ability to degrade the synthetic epoxide hydrolase substrate (2S,3S)-trans-3-Phenyl-2-oxiranylmethyl 4-nitrophenyl carbonate ((S)-NEPC) was assessed. This assay measures the production of the product p-nitrophenol, which is yellow in color and absorbs maximally at 405 nm.
Purified PA2934-His was assayed for its ability to degrade the epoxide hydrolase synthetic substrate (2S,3S)-trans-3-Phenyl-2-oxiranylmethyl 4-nitrophenyl carbonate ((S)-NEPC) (Sigma, St. Louis, Mo.). […] Degradation of (S)-NEPC was measured as an increase in absorbance at OD405 utilizing a Molecular Devices SpectraMax M2 plate reader. Reactions were normalized to controls lacking enzyme, accounting for spontaneous hydrolysis of the substrate.

[4] = system: MDCK-GFP-MDR1 cells; format: cell-based, canine; details: pre-treatment 60 min, then Dox (0, 1, 3, 5 or 10 μM) for 4 hrs at 37 C; buffer ˜5%
Excerpt: The studies above indicate that CIF reduces the plasma membrane expression of P-glycoprotein (i.e. Pgp or multidrug resistance protein (MDR)), MRP2, BCRP and other members of the ABC transmembrane protein family, whose functions include the transport of small molecules across cell membranes. More specifically, members of the ABC transporter family function by preventing therapeutics including but not limited to anti-cancer therapies and antibiotics from accumulating in the central nervous system, and by conferring the observed “drug resistance” of numerous cancers. […]
MDCK-GFP-MDR1 cells, MDCK-C7 cells stably transfected with GFP-Pgp under the transcriptional control of human MDR1 promoter as described by Maitra et al. (Biochem J 2001 355:617-624) were used in these studies. […] Cell viability was then assessed using the CellTiter 96Queous One Solution Cell Proliferation assay. After incubating for 4 hours at 37° C., the absorbance was determined at 490 nm.

Molecule | inhibition of forskolin stimulated CFTR-mediated Cl− ion secretion [1] [μA/cm^2] | effect on apical expression of CFTR [2] | reduction of apical expression of CFTR ([2]; 60 minutes after treatment) [%] | reduction of apical expression of CFTR ([2]; at 90 minutes) [%] | inhibition of forskolin stimulated CFTR-mediated Cl− ion secretion ([1]; WT-CFBE cells, added to apical face, 50 μg PA2934-His, CFTRinh-172 5 μM) [μA/cm^2] | reduction of CFTR Cl− currents ([1]; WT-CFBE cells, relative to CFTRinh-172-sensitive current) | epoxide hydrolase activity (degradation of (S)-NEPC, absorbance at 405 nm) [3] | reduction in cell viability [4] [%]
O=C(O)c1ccc(/C=C2\SC(=S)N(c3cccc(C(F)(F)F)c3)C2=O)cc1 [CFTRinh-172, reference compound] | ~50 |  |  |  |  |  |  | 
B1 |  | significantly decreases | > 60 | > 70 | ~30 | approximately 60% | capable of degrading this compound in a protein concentration dependent manner | ~25
